According to PMC5037378:

Molecular target: Aggrecan (UniProt P13608)
Experiment: solid phase binding assay (ELISA-type, HRP anti-human IgG Fc, OPD colorimetric)
Conditions: PTPσ-Fc 80 nM, wells coated with aggrecan 10 μg/ml, read off a plot

Sequence of UniProt P13608 (P13608 17-2364): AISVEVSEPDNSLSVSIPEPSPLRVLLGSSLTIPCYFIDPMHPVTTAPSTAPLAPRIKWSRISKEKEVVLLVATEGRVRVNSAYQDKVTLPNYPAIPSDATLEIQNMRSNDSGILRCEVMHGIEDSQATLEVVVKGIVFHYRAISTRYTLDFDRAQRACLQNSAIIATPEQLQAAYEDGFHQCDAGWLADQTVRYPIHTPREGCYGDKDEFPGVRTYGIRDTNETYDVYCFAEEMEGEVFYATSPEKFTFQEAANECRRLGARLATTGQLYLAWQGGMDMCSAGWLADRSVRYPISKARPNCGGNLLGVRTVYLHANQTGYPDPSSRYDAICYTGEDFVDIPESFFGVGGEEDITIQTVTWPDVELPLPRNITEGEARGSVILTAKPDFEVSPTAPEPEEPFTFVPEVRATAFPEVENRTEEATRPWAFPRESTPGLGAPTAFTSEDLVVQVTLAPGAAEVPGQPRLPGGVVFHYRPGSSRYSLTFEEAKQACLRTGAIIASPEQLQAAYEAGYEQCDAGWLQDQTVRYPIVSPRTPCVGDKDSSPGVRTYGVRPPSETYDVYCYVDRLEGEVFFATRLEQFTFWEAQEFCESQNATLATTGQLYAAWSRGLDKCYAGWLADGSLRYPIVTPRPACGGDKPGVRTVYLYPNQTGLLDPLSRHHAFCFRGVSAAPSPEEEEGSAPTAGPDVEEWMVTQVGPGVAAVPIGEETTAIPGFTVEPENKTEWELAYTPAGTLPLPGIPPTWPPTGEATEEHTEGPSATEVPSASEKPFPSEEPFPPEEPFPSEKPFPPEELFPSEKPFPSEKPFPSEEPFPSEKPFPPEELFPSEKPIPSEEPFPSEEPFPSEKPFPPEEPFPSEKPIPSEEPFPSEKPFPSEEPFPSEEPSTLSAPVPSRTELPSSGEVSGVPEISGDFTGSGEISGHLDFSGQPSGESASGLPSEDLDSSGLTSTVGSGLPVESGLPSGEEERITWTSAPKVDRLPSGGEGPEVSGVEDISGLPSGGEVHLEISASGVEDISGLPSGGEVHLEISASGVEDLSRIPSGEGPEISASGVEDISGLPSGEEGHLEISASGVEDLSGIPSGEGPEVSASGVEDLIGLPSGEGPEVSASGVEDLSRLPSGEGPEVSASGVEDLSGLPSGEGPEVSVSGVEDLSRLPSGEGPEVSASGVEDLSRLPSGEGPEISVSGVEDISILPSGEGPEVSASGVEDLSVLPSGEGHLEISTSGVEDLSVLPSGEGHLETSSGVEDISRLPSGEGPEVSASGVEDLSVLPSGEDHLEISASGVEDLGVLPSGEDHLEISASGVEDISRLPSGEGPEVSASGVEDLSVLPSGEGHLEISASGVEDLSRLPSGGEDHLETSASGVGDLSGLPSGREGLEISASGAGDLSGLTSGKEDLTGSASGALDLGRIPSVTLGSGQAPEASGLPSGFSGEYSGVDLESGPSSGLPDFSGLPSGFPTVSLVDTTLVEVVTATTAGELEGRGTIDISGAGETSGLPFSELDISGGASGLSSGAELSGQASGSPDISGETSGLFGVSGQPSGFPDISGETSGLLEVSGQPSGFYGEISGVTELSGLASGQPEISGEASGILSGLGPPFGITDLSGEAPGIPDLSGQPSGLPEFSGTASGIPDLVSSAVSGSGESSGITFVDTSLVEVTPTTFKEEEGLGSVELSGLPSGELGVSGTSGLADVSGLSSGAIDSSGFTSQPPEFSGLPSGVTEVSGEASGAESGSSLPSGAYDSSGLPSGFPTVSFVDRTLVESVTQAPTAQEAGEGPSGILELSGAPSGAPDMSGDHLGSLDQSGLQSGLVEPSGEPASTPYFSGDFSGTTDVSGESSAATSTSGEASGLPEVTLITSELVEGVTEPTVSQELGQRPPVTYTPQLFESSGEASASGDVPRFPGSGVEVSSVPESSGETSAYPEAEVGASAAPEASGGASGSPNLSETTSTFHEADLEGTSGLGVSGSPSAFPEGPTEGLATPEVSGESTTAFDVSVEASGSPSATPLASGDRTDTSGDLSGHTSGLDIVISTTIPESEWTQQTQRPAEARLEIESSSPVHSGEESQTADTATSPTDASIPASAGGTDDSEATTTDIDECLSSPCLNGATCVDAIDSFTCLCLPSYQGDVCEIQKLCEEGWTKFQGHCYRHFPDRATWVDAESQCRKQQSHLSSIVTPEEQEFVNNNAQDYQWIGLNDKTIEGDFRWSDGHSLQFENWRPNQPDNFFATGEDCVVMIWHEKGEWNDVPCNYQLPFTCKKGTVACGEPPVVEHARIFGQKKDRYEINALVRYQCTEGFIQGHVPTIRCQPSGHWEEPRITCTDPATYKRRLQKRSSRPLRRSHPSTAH

- response (HB-GAM 0 nM, parent: est. 1.2): 0.081 A450
- response (HB-GAM 10 nM, parent: est. 0.88): 0.085 A450
- response (HB-GAM 20 nM, parent: est. 0.64): 0.085 A450
- response (HB-GAM 40 nM, parent: est. 0.43): 0.084 A450
- response (HB-GAM 80 nM, parent: est. 0.31): 0.083 A450
- response (HB-GAM 160 nM, parent: est. 0.25): 0.083 A450
- response (HB-GAM 320 nM, parent: est. 0.23): 0.084 A450
Substance: PTPσ (protein tyrosine phosphatase sigma) N-terminal extracellular part with the three Ig domains, Fc-tagged, wild type (from UniProt B0V2N1) PTPσ mutant (lacks the CS binding site; substitutions not printed)
